From the supplement of paper PMC7125110
± gives the standard error. Variants at the floor of the assay were thinned out.

B1: glmS ribozyme (parent)
chain: AUAAAAGCGCCAGAACUACAGAAAUGUAGUUGACGAGGAGGAGGUUUAUCGAAUUUUCGGCGGAUGCCUCCAAA

What was measured:
Settings in all cases: with glucosamine-6-phosphate
glucosamine-6-phosphate [1] = variants of: B1; experiment: self-cleavage kobs at 40 uM GlcN6P; higher = faster cleavage; RNA array
Summary of the method: (§1)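 Barcoded ribozyme variants on sequenced MiSeq chips were transcribed in situ by E. coli RNA polymerase and followed at 37 °C through a hybridised Cy3 probe. Glucosamine-6-phosphate at 40 μM to 10 mM in HEPES/KCl/Mg(OAc)2 buffer was flowed in, and tiles were imaged over ~14 h. Signals were normalised to baseline and to non-cleaving reference variants, and per-tile medians were fit to one- or two-exponential decays to give kobs. Weighted Michaelis–Menten fits across concentrations gave kcat and KM.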

glucosamine-6-phosphate [2] = variants of: B1; experiment: self-cleavage kobs at 640 uM GlcN6P; higher = faster cleavage; RNA array
Summary of the method: as §1

glucosamine-6-phosphate [3] = variants of: B1; experiment: self-cleavage kobs at 10000 uM GlcN6P; higher = faster cleavage; RNA array
Summary of the method: as §1

glucosamine-6-phosphate [4] = variants of: B1; experiment: self-cleavage kobs at 160 uM GlcN6P; higher = faster cleavage; RNA array
Summary of the method: as §1

glucosamine-6-phosphate [5] = variants of: B1; experiment: self-cleavage kobs at 2500 uM GlcN6P; higher = faster cleavage; RNA array
Summary of the method: as §1

Row | Variant | self-cleavage kobs at 40 uM GlcN6P (glucosamine-6-phosphate [1]) [s⁻¹] | self-cleavage kobs at 640 uM GlcN6P (glucosamine-6-phosphate [2]) [s⁻¹] | self-cleavage kobs at 10000 uM GlcN6P (glucosamine-6-phosphate [3]) [s⁻¹] | self-cleavage kobs at 160 uM GlcN6P (glucosamine-6-phosphate [4]) [s⁻¹] | self-cleavage kobs at 2500 uM GlcN6P (glucosamine-6-phosphate [5]) [s⁻¹]
1 | AUAAAAGCGCCAGAACUACAGAAAUGUAGUUGACGAGGAGGAGGUUUAUCGAAUUUGCCGCGGAUGCCUCCAAA [U57G G59C] | < 1e-05 | < 1e-05 | < 1e-05 |  | 
2 | AUAAAAGCGCCAGAACUACAGAAAUGUAGUUGACGAGGAGGAGGUUUAUCGAAUUCUCGGAGGAUGCCUCCAAA [U56C C61A] | < 1e-05 | < 1e-05 |  | < 1e-05 | 
3 | AUAAAAGCGCCAGAACUACAGAAAUGUAGUUGACGAGGAGGAGGUUUAUCGAAUUCUCGGUGGAUGCCUCCAAA [U56C C61U] | < 1e-05 | < 1e-05 | < 1e-05 | < 1e-05 | < 1e-05
4 | AUAAAAGCGCCAGAACUACAGAAAUGUAGUUGACGAGGAGGAGGUUUAUCGAAUUGUCGGCGGAUGACUCCAAA [U56G C67A] | 6.65e-05 ± 1.8e-05 | 0.00102 ± 0.00014 | 0.00273 ± 0.00081 | 0.000207 ± 5.3e-05 | 0.000842 ± 0.00014
5 | AUAAAAGCGCCAGAACUACAGAAAUGUAGUUGACGAGGAGGAGGUUUAUCGAAUUUGCGGCGGAUGCCUGCAAA [U57G C70G] | 3.7e-05 ± 9.8e-06 | 0.000103 ± 1.5e-05 | 2.33e-05 ± 1e-05 | 0.00016 ± 3e-05 | 8.84e-05 ± 1.5e-05
6 | AUAAAAGCGCCAGAACUACAGAAAUGUAGUUGACGAGGAGGAGGUUUAUCGAAUCUUCGUCGGAUGCUUCCAAA [U55C G60U C68U] | < 1e-05 |  |  |  | < 1e-05
7 | AUAAAAGCGCCAGAACUACAGAAAUGUAGUUGACGAGGAGGAGGUUUAUCGAAUGGUCGGCCGAUGCCUCCAAA [U55G U56G G62C] | < 1e-05 |  | < 1e-05 |  | 
8 | AUAAAAGCGCCAGAACUACAGAAAUGUAGUUGACGAGGAGGAGGUUUAUCGAAUUCUCGGCUGAUGCCUCCAAA [U56C G62U] | < 1e-05 |  | < 1e-05 |  | 
9 | AUAAAAGCGCCAGAACUACAGAAAUGUAGUUGACGAGGAGGAGGUUUAUCGAAUCUUCGGCAGAUGCCUCCAAA [U55C G62A] | < 1e-05 | < 1e-05 | < 1e-05 | < 1e-05 | < 1e-05
10 | AUAAAAGCGCCAGAACUACAGAAAUGUAGUUGACGAGGAGGAGGUUUAUCGAAUGUUAGCGGGAUGACUCCAAA [U55G C58A G60C C61G C67A] | < 1e-05 |  |  |  | 
11 | AUAAAAGCGCCAGAACUACAGAAAUGUAGUUGACGAGGAGGAGGUUUAUCGAAUUGUCGGCGUAUGCCUCCAAA [U56G G63U] | < 1e-05 | < 1e-05 | < 1e-05 | < 1e-05 | 
12 | AUAAAAGCGCCAGAACUACAGAAAUGUAGUUGACGAGGAGGAGGUUUAUCGAAUUGUCGGCGGAAGCCUCCAAA [U56G U65A] | 3.91e-05 ± 7.3e-06 | 0.000245 ± 6.8e-05 | 0.0026 ± 0.0003 |  | 0.000827 ± 0.0002
13 | AUAAAAGCGCCAGAACUACAGAAAUGUAGUUGACGAGGAGGAGGUUUAUCGAAUCUUCGGCGGAUGCAUCCAAA [U55C C68A] | < 1e-05 | < 1e-05 |  | < 1e-05 | < 1e-05
14 | AUAAAAGCGCCAGAACUACAGAAAUGUAGUUGACGAGGAGGAGGUUUAUCGAAUUGUCGGCUGAUGCGUCCAAA [U56G G62U C68G] | < 1e-05 |  | < 1e-05 |  | 
15 | AUAAAAGCGCCAGAACUACAGAAAUGUAGUUGACGAGGAGGAGGUUUAUCGAAUUUACGGUGGAUGCCUCCAAA [U57A C61U] | < 1e-05 | < 1e-05 | < 1e-05 |  | < 1e-05
16 | AUAAAAGCGCCAGAACUACAGAAAUGUAGUUGACGAGGAGGAGGUUUAUCGAAUUGUCAGCGGAUGCAUCCAAA [U56G G59A C68A] | < 1e-05 | < 1e-05 | < 1e-05 |  | 
17 | AUAAAAGCGCCAGAACUACAGAAAUGUAGUUGACGAGGAGGAGGUUUAUCGAAUGUUCGGCGGAUGGCUCCAAA [U55G C67G] | 0.000127 ± 1.4e-05 | 0.000819 ± 0.00012 | 0.00597 ± 0.00099 | 0.000234 ± 5.1e-05 | 0.000472 ± 0.0001
18 | AUAAAAGCGCCAGAACUACAGAAAUGUAGUUGACGAGGAGGAGGUUUAUCGAAUUCUCCGCGGAUGCGUCCAAA [U56C G59C C68G] | < 1e-05 |  | < 1e-05 |  | 
19 | AUAAAAGCGCCAGAACUACAGAAAUGUAGUUGACGAGGAGGAGGUUUAUCGAAUUAUCGGCUGAUGCCUCCAAA [U56A G62U] | < 1e-05 | < 1e-05 |  |  | 
20 | AUAAAAGCGCCAGAACUACAGAAAUGUAGUUGACGAGGAGGAGGUUUAUCGAAUUCUCGUCGGAUGCCUCCAAA [U56C G60U] | < 1e-05 | < 1e-05 | < 1e-05 | < 1e-05 | < 1e-05
21 | AUAAAAGCGCCAGAACUACAGAAAUGUAGUUGACGAGGAGGAGGUUUAUCGAAUUUACUGCGGAUGCCUCCAAA [U57A G59U] | < 1e-05 | < 1e-05 | < 1e-05 | < 1e-05 | 
22 | AUAAAAGCGCCAGAACUACAGAAAUGUAGUUGACGAGGAGGAGGUUUAUCGAAUUUGCGCCGGAUGCCUCCAAA [U57G G60C] | < 1e-05 | < 1e-05 |  | < 1e-05 | < 1e-05
